Article PMC8857482

B1: 54 bp target dsDNA (dsDNA)
DNA 1: GGAAGCCATCCAGGTAGACGCGGACATCAAGCCCGCCGTGAAGGTGCAGCTGCT
DNA 2: AGCAGCTGCACCTTCACGGCGGGCTTGATGTCCGCGTCTACCTGGATGGCTTCC

The molecules below were run against T1, Csy complex (type I-F surveillance complex: Cas8f, Cas5f, Cas7f, Cas6f + crRNA) (Pseudomonas aeruginosa, UniProt Q02ML9;Q02MM0;Q02MM1;Q02MM2 1-434;1-327;1-342;1-187) (assay: EMSA).
T1 sequence 1: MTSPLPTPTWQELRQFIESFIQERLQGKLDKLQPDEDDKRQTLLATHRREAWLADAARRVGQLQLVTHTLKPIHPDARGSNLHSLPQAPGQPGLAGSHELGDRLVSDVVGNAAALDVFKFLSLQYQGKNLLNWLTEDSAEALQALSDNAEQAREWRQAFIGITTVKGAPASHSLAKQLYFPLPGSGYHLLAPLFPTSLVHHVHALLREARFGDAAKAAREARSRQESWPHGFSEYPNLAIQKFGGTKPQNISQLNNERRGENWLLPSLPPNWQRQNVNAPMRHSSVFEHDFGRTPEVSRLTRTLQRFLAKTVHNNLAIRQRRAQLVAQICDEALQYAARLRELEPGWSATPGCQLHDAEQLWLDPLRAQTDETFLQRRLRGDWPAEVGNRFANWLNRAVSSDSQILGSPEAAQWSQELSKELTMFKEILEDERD
T1 sequence 2: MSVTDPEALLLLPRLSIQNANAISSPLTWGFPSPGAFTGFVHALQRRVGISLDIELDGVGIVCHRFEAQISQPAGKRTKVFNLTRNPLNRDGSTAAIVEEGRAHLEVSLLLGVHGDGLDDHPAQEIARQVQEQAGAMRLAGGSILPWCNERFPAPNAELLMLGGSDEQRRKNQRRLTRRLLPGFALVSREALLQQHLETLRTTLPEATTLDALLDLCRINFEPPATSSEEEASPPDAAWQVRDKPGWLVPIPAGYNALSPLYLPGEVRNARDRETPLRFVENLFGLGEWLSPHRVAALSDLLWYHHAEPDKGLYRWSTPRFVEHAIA
T1 sequence 3: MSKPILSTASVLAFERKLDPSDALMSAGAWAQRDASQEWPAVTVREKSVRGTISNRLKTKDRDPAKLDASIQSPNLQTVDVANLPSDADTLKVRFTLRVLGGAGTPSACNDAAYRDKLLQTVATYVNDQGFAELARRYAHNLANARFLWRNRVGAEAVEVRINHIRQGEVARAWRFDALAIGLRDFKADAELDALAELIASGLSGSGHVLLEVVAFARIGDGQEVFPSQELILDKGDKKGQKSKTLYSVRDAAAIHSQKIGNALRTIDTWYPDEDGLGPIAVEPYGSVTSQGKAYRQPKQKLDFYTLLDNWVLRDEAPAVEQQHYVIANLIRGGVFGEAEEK
T1 sequence 4: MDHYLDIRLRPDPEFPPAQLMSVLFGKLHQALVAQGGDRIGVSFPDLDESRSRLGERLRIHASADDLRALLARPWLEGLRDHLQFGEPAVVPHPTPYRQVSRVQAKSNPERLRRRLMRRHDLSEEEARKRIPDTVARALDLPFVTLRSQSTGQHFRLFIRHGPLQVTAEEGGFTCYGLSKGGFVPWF
B1: binds.

These molecules were tested against type I-F CRISPR-Cas surveillance complex (Csy complex) (Pseudomonas aeruginosa) (UniProt Q02ML9) (assay: MST).
AcrIF13 (natural protein) gave a Kd of 1.51 nM.
Work on AcrIF13 D21K/E22K (natural protein) yielded a Kd of 29.8 nM.
AcrIF13 D43K/D44K (natural protein) was tested, and the Kd was 1.85 nM.
Molecule AcrIF13 D45K/D46K (natural protein) has a Kd of 6.22 nM.
For AcrIF13 D63K (natural protein), the Kd was 24.6 nM.
Molecule AcrIF13 D102K (natural protein) has a Kd of 9.21 nM.
AcrIF13 D113K (natural protein) gave a Kd of 67.7 nM.
For AcrIF13 E10K (natural protein), the Kd was 22.3 nM.
AcrIF13 E18K (natural protein) showed a Kd of 2.55 nM.
For AcrIF13 E40K (natural protein), the Kd was 5.17 nM.
AcrIF13 E50K (natural protein) showed a Kd of 18.1 nM.
AcrIF13 E57K (natural protein) gave a Kd of 5.39 nM.
For “AcrIF13 E82K/E83K/D84K (natural protein)”, the Kd was 7.22 nM.
With AcrIF13 E97K (natural protein) the Kd was 14.3 nM.

These molecules were tested against Csy complex with Cas8f (N250D) (Pseudomonas aeruginosa) (UniProt Q02ML9) (assay: MST).
AcrIF13 (natural protein) showed a Kd of 647 nM.

These molecules were tested against Csy complex with Cas7f (K58A/K60A) (Pseudomonas aeruginosa) (UniProt Q02ML9) (assay: MST).
AcrIF13 (natural protein) was tested, and the Kd was 34.2 nM.
